In US10766960 (dated 2020):
Positions count from the first letter of the chain named. Read-outs that look alike come from different tables or passages of the source. One block for each binder: values may come before it.

Tests used:
Assay in all cases: SPR
FcgRIa [1] = target: T1, FcgRIa (human, UniProt P12314)
T1 chain: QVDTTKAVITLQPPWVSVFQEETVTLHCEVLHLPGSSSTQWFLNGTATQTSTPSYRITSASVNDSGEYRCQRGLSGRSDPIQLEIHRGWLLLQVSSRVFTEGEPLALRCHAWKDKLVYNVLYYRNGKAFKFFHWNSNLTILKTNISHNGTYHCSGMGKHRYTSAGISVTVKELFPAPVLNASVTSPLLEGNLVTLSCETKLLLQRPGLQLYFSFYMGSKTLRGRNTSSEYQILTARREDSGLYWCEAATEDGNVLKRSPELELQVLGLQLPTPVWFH

FcgRIIa H [2] = target: T2, FcgRIIa H (human, UniProt P12318)
T2 chain: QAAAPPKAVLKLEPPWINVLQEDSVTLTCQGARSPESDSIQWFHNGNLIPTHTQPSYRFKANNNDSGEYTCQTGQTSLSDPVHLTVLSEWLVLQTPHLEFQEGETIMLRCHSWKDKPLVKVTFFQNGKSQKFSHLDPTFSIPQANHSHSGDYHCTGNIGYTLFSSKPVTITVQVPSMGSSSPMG

FcgRIIIa F [3] = target: T3, FcgRIIIa F (human, UniProt P08637)
FcgRIIIa V [4] = target: T4, FcgRIIIa V (human, UniProt P08637)
FcgRIIa R [5] = target: T5, FcgRIIa R (human, UniProt P12318)
T5 chain: T2 chain with H134R

FcgRIIb [6] = target: T6, FcgRIIb (human, UniProt P31994)
T6 chain: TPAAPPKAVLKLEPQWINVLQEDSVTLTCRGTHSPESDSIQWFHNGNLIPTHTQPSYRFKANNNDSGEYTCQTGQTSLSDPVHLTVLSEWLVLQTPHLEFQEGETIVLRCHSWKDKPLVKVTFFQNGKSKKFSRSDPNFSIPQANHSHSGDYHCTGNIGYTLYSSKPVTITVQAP

FcgRIa [7] = target: T1, FcgRIa
FcgRIIb [8] = target: T6, FcgRIIb
FcgRIIIa V [9] = target: T4, FcgRIIIa V; remark: listed apart in the source
FcgRIIIa F [10] = target: T3, FcgRIIIa F; remark: listed apart in the source
FcgRIIa R [11] = target: T5, FcgRIIa R
FcgRIIa H [12] = target: T2, FcgRIIa H

T4 sequence (P08637 17-208 F176V): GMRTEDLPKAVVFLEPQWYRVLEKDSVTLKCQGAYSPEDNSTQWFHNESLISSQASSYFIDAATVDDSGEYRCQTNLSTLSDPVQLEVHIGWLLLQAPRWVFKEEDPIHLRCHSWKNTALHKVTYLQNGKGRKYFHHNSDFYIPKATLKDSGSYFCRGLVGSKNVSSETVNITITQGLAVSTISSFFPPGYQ
T3 sequence (P08637 17-208): as the sequence (P08637 17-208 F176V) above, with V160F counted along it

B1: H240-Kn234/H240-Hl068/L73-k0 (antibody)
chain 1: QDQLVQSGAEVKKPGASVKVSCKASGFNIKDTYIQWVRQAPGQGLEWMGRIDPLRKQTKYREKFEGRVTITADTSTNTAYMELSSLRSEDTAVYYCVRSGREFDYWGQGTLVTVSSASTKGPSVFPLAPSSKSTSGGTAALGCLVKDYFPEPVTVSWNSGALTSGVHTFPAVLQSSGLYSLSSVVTVPSSSLGTQTYICNVNHKPSNTKVDKKVEPKSCDKTHTCPPCPAPEDYWGPIVFLFPPKPKDTLMISRTPEVTCVVVDVSDEDPEVKFNWYVDGVEVHNAKTKPREEQYNATYRVVSVLTVLHQDWLNGKEYKCKVSNKDLPAPIEKTISKAKGQPREPQVCTLPPSRDELTKNQVSLWCLVKGFYPSDIAVEWESNGQPENNYKTTPPVLDSDGSFFLYSKLTVDKSRWQQGNVFSCSVMHEALHNHYTQKSLSLSP
chain 2: QDQLVQSGAEVKKPGASVKVSCKASGFNIKDTYIQWVRQAPGQGLEWMGRIDPLRKQTKYREKFEGRVTITADTSTNTAYMELSSLRSEDTAVYYCVRSGREFDYWGQGTLVTVSSASTKGPSVFPLAPSSKSTSGGTAALGCLVKDYFPEPVTVSWNSGALTSGVHTFPAVLQSSGLYSLSSVVTVPSSSLGTQTYICNVNHKPSNTKVDKKVEPKSCDKTHTCPPCPAPELLGGPSVFLFPPKPKDTLMISRTPEVTCVVVDVSHEEPEVKFNWYVDGVEVHNAKTKPREEQYNSTYRVVSVLTVLHQDWLNGKEYKCKVSNDALPKPIEETISKAKGQPREPQVYTLPPSRCELTKNQVSLSCAVKGFYPSDIAVEWESNGQPENNYKTTPPVLDSDGSFFLVSKLTVDKSRWQQGNVFSCSVMHEALHNHYTQKSLSLSP
chain 3: DIQMTQSPSSLSASVGDRVTITCRASQDIHKYIAWYQQKPGQAPRLLIQYTSTLQPGVPSRFSGSGSGTDYTFTISSLQPEDIATYYCLQYEQLRTFGGGTKVEIKRTVAAPSVFIFPPSDEQLKSGTASVVCLLNNFYPREAKVQWKVDNALQSGNSQESVTEQDSKDSTYSLSSTLTLSKADYEKHKVYACEVTHQGLSSPVTKSFNRGEC
Kd (FcgRIa [1]): 0.19 nM
Kd (FcgRIIa H [2]): 65 nM
Kd (FcgRIIIa F [3]): 2.3 nM
Kd (FcgRIIIa V [4]): 0.68 nM
Kd (FcgRIIa R [5]): 21 nM
Kd (FcgRIIb [6]): 140 nM

B3: H240-Kn222/H240-Hl068/L73-k0 (antibody)
chain 1: B1 chain 1 with D233A, I238M
chain 2: B1 chain 2
chain 3: B1 chain 3
Kd (FcgRIa [7]): 0.14 nM
Kd (FcgRIIb [8]): 190 nM
Kd (FcgRIIIa V [9]): 0.54 nM
Kd (FcgRIIIa F [10]): 3.3 nM
Kd (FcgRIIa R [11]): 28 nM
Kd (FcgRIIa H [12]): 49 nM

B5: H240-Kn189/H240-Hl068/L73-k0 (antibody)
chain 1: B1 chain 1 with D233S, I238M
chain 2: B1 chain 2
chain 3: B1 chain 3
Kd (FcgRIa [7]): 0.16 nM
Kd (FcgRIIb [8]): 150 nM
Kd (FcgRIIIa V [9]): 0.52 nM
Kd (FcgRIIIa F [10]): 3.2 nM
Kd (FcgRIIa R [11]): 23 nM
Kd (FcgRIIa H [12]): 48 nM

B8: H240-Kn202/H240-Hl214/L73-k0 (antibody)
chain 1: B1 chain 1 with D233E, Y234Q, I238M, D269E, D326A
chain 2: B1 chain 2 with K329F
chain 3: B1 chain 3
Kd (FcgRIa [1]): 0.09 nM
Kd (FcgRIIa H [2]): 440 nM
Kd (FcgRIIIa F [3]): 2.6 nM
Kd (FcgRIIIa V [4]): 0.95 nM
Kd (FcgRIIa R [5]): 830 nM
Kd (FcgRIIb [6]): 6100 nM

B10: H240-Kn198/H240-Hl068/L73-k0 (antibody)
chain 1: B1 chain 1 with D233L, Y234Q, I238M, D269E, D326A
chain 2: B1 chain 2
chain 3: B1 chain 3
Kd (FcgRIa [1]): 0.24 nM
Kd (FcgRIIa H [2]): 49 nM
Kd (FcgRIIIa F [3]): 3.7 nM
Kd (FcgRIIIa V [4]): 0.85 nM
Kd (FcgRIIa R [5]): 240 nM
Kd (FcgRIIb [6]): 1600 nM

B12: H240-Kn224/H240-Hl068/L73-k0 (antibody)
chain 1: B1 chain 1 with D233H, I238M
chain 2: B1 chain 2
chain 3: B1 chain 3
Kd (FcgRIa [7]): 0.14 nM
Kd (FcgRIIb [8]): 360 nM
Kd (FcgRIIIa V [9]): 0.53 nM
Kd (FcgRIIIa F [10]): 4 nM
Kd (FcgRIIa R [11]): 54 nM
Kd (FcgRIIa H [12]): 57 nM

B14: H240-Kn218/H240-Hl068/L73-k0 (antibody)
chain 1: B1 chain 1 with D233Q, I238M
chain 2: B1 chain 2
chain 3: B1 chain 3
Kd (FcgRIa [7]): 0.14 nM
Kd (FcgRIIb [8]): 220 nM
Kd (FcgRIIIa V [9]): 0.5 nM
Kd (FcgRIIIa F [10]): 3.5 nM
Kd (FcgRIIa R [11]): 37 nM
Kd (FcgRIIa H [12]): 33 nM

B15: H240-Kn208/H240-Hl076/L73-k0 (antibody)
chain 1: B1 chain 1 with Y234Q, I238M, D269E, D326A
chain 2: B1 chain 2 with K329M
chain 3: B1 chain 3
Kd (FcgRIa [7]): 0.1 nM
Kd (FcgRIIb [8]): 3200 nM
Kd (FcgRIIIa V [9]): 0.4 nM
Kd (FcgRIIIa F [10]): 1.8 nM
Kd (FcgRIIa R [11]): 500 nM
Kd (FcgRIIa H [12]): 310 nM

B16: H240-Kn227/H240-Hl214/L73-k0 (antibody)
chain 1: B1 chain 1 with D233E, Y234Q, D269E, D326A
chain 2: B1 chain 2 with K329F
chain 3: B1 chain 3
Kd (FcgRIa [1]): 0.13 nM
Kd (FcgRIIa H [2]): 290 nM
Kd (FcgRIIIa F [3]): 1.8 nM
Kd (FcgRIIIa V [4]): 0.8 nM
Kd (FcgRIIa R [5]): 370 nM
Kd (FcgRIIb [6]): 2800 nM

B17: H240-Kn221/H240-Hl068/L73-k0 (antibody)
chain 1: B1 chain 1 with D233T, I238M
chain 2: B1 chain 2
chain 3: B1 chain 3
Kd (FcgRIa [7]): 0.18 nM
Kd (FcgRIIb [8]): 220 nM
Kd (FcgRIIIa V [9]): 0.47 nM
Kd (FcgRIIIa F [10]): 2.7 nM
Kd (FcgRIIa R [11]): 29 nM
Kd (FcgRIIa H [12]): 44 nM

Continued, values first:

Kd (FcgRIa [7]): 0.038 nM
Kd (FcgRIIb [8]): 1300 nM
Kd (FcgRIIIa V [9]): 7.4 nM
Kd (FcgRIIIa F [10]): 14 nM
Kd (FcgRIIa R [11]): 640 nM
Kd (FcgRIIa H [12]): 760 nM
B2: H240-Kn204/H240-Hl211/L73-k0 (antibody)
chain 1: B1 chain 1 with D233Y, Y234L, W235G, I238S, D267H, K289Y, Y295W, A297S, D326A
chain 2: B1 chain 2 with S238D, E269D, D325K, K329M, E333V
chain 3: B1 chain 3

Kd (FcgRIa [7]): 0.054 nM
Kd (FcgRIIb [8]): 1600 nM
Kd (FcgRIIIa V [9]): 4.2 nM
Kd (FcgRIIIa F [10]): 12 nM
Kd (FcgRIIa R [11]): 610 nM
Kd (FcgRIIa H [12]): 370 nM
B4: H240-Kn205/H240-Hl212/L73-k0 (antibody)
chain 1: B1 chain 1 with D233Y, Y234L, W235G, I238S, D267H, Y295W, A297C, D326A
chain 2: B1 chain 2 with S238D, E269D, D325K, K329A, E333V
chain 3: B1 chain 3

Kd (FcgRIa [7]): 0.089 nM
Kd (FcgRIIb [8]): 6100 nM
Kd (FcgRIIIa V [9]): 0.68 nM
Kd (FcgRIIIa F [10]): 2.6 nM
Kd (FcgRIIa R [11]): 1000 nM
Kd (FcgRIIa H [12]): 250 nM
B6: H240-Kn215/H240-Hl076/L73-k0 (antibody)
chain 1: B1 chain 1 with D233H, Y234Q, I238M, D269E, D326A
chain 2: B1 chain 2 with K329M
chain 3: B1 chain 3

Kd (FcgRIa [7]): 0.084 nM
Kd (FcgRIIb [8]): 4200 nM
Kd (FcgRIIIa V [9]): 0.52 nM
Kd (FcgRIIIa F [10]): 1.9 nM
Kd (FcgRIIa R [11]): 550 nM
Kd (FcgRIIa H [12]): 200 nM
B7: H240-Kn211/H240-Hl076/L73-k0 (antibody)
chain 1: B1 chain 1 with D233M, Y234Q, I238M, D269E, D326A
chain 2: B1 chain 2 with K329M
chain 3: B1 chain 3

Kd (FcgRIa [7]): 0.082 nM
Kd (FcgRIIb [8]): 6100 nM
Kd (FcgRIIIa V [9]): 0.73 nM
Kd (FcgRIIIa F [10]): 2.6 nM
Kd (FcgRIIa R [11]): 820 nM
Kd (FcgRIIa H [12]): 210 nM
B9: H240-Kn213/H240-Hl076/L73-k0 (antibody)
chain 1: B1 chain 1 with D233A, Y234Q, I238M, D269E, D326A
chain 2: B1 chain 2 with K329M
chain 3: B1 chain 3

Kd (FcgRIa [7]): 0.083 nM
Kd (FcgRIIb [8]): 6300 nM
Kd (FcgRIIIa V [9]): 0.54 nM
Kd (FcgRIIIa F [10]): 1.5 nM
Kd (FcgRIIa R [11]): 630 nM
Kd (FcgRIIa H [12]): 140 nM
B11: H240-Kn198/H240-Hl076/L73-k0 (antibody)
chain 1: B1 chain 1 with D233L, Y234Q, I238M, D269E, D326A
chain 2: B1 chain 2 with K329M
chain 3: B1 chain 3

Kd (FcgRIa [7]): 0.085 nM
Kd (FcgRIIb [8]): 5200 nM
Kd (FcgRIIIa V [9]): 0.49 nM
Kd (FcgRIIIa F [10]): 1.9 nM
Kd (FcgRIIa R [11]): 680 nM
Kd (FcgRIIa H [12]): 170 nM
B13: H240-Kn207/H240-Hl076/L73-k0 (antibody)
chain 1: B1 chain 1 with D233V, Y234Q, I238M, D269E, D326A
chain 2: B1 chain 2 with K329M
chain 3: B1 chain 3
